Measurements: publication PMC12693511, “Processing of DNA single-strand breaks with oxidatively damaged ends by LIG1”

Tests used:
[1] = biological target: T1, LIG1 EE/AA (C-terminal, Δ261) (UniProt P18858 262-919, E346A;E592A); assay: X-ray crystallography; AMP, pre-catalytic (DNA-AMP); EDTA, no metal added; BLI: 20 mM HEPES pH 7.4, 200 mM NaCl, 0.5% BSA, 0.05% Tween 20, 40 nM DNA loaded, sensors hydrated at 20 C; crystals: 20 mM Tris-HCl pH 7.0, 200 mM NaCl, 1 mM DTT, 1 mM EDTA, 1 mM ATP, 1.4:1 DNA:protein, 20 C; details: protein: recombinant, tags: 6xHis, nicked duplex, blunt outer ends
LIG1 wild-type = LIG1 wild-type (UniProt P18858 262-919); assay: as above; details: protein: recombinant; tags: 6xHis; nicked duplex, blunt outer ends; 8-oxoG:C Watson-Crick pair at nick
[2] = biological target: T1, LIG1 EE/AA (C-terminal, Δ261); assay: X-ray crystallography; post-catalytic, nick sealed; EDTA, no metal added; BLI: 20 mM HEPES pH 7.4, 200 mM NaCl, 0.5% BSA, 0.05% Tween 20, 40 nM DNA loaded, sensors hydrated at 20 C; crystals: 20 mM Tris-HCl pH 7.0, 200 mM NaCl, 1 mM DTT, 1 mM EDTA, 1 mM ATP, 1.4:1 DNA:protein, 20 C; details: protein: recombinant; tags: 6xHis; nicked duplex, blunt outer ends; 8-oxorG:A Hoogsteen pair; nick sealed in crystal

T1 sequence (P18858 262-919 E346A/E592A): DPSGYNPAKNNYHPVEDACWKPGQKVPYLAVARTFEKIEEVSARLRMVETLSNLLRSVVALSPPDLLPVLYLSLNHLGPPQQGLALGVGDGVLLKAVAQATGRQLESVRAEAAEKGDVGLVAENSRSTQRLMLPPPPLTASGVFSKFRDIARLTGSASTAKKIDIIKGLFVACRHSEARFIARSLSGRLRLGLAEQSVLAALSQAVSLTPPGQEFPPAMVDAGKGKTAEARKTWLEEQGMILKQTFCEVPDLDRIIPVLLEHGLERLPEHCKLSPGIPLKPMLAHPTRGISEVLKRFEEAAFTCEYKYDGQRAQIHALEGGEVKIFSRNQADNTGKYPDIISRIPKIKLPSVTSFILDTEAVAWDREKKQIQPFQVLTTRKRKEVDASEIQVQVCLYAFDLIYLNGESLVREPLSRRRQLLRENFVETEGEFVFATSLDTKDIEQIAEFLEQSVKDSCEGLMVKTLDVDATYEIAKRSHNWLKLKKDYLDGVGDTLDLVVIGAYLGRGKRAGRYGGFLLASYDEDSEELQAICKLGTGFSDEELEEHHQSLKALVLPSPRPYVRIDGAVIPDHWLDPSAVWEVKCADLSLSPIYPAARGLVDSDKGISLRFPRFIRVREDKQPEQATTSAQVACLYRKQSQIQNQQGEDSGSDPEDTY
LIG1 wild-type, sequence (P18858 262-919): as the sequence (P18858 262-919 E346A/E592A) above, with A85E, A331E counted along it

B1: nick 3'-8-oxodG:A (dsDNA)
DNA 1: GCTGATGCGTG
DNA 2: GTCGGAC
DNA 3: GTCCGACAACGCATCAGC
modifications: 8-oxodG at 3' end of strand 1 (nt 11); 5'-phosphate on strand 2 (5'-AMP in crystal)
B1: binds ([1]; 8-oxoG:A Hoogsteen pair at nick).

B2: nick 3'-8-oxodG:C (dsDNA)
DNA 1: GCTGATGCGTG
DNA 2: GTCGGAC
DNA 3: GTCCGACCACGCATCAGC
modifications: 8-oxodG at 3' end of strand 1 (nt 11); 5'-phosphate on strand 2 (5'-AMP in crystal)
B2: binds (LIG1 wild-type); binds ([1]; 8-oxoG:C Watson-Crick pair at nick).

B3: nick 3'-8-oxorG:C (mixed)
DNA 1: GCTGATGCGTG
DNA 2: GTCGGAC
DNA 3: GTCCGACCACGCATCAGC
modifications: 8-oxo-riboG at 3' end of strand 1 (nt 11), rest DNA; 5'-phosphate on strand 2 (5'-AMP in crystal)
B3: binds ([1]; 8-oxorG:C Watson-Crick pair at nick).

B4: nick 3'-8-oxorG:A (mixed)
DNA 1: GCTGATGCGTG
DNA 2: GTCGGAC
DNA 3: GTCCGACAACGCATCAGC
modifications: 8-oxo-riboG at 3' end of strand 1 (nt 11), rest DNA; 5'-phosphate on strand 2; strands 1 and 2 ligated in the crystal
B4: binds [2].
